Results published in US20200262877A1, “ION CHANNEL-BINDING PEPTIDES AND METHODS OF USE THEREOF” (priority 2017, published 2020).

Key:
Kv2.1 = target: T1, Kv2.1 (Homo sapiens, UniProt Q14721); experiment: cell-based; details: 100% = no change, <100% = inhibition
T1 construct: host or cells: HEK293 or CHO
How it was run: (§1)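 Transfected HEK293 or CHO cells were exposed for at least 5 min to peptides at 200 nM and 20 μM final, tested in duplicate, in HEPES-buffered physiological saline. Activation was taken as peptide-plus-agonist current over control current ×100, and inhibition as 1 minus that ratio ×100. Each channel's control was its own reference compound.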

Cav2.2 = target: T2, Cav2.2 (Homo sapiens, UniProt Q00975); experiment: cell-based; details: 100% = no change, <100% = inhibition
T2 construct: host or cells: HEK293 or CHO
How it was run: as §1

Cav2.1 = target: T3, Cav2.1 (Homo sapiens, UniProt O00555); experiment: cell-based; details: 100% = no change, <100% = inhibition
T3 construct: host or cells: HEK293 or CHO
How it was run: as §1

α3β4 = target: T4, α3β4 (Homo sapiens, UniProt P30926+P32297); experiment: Ion channel panel (IonWorks Barracuda): α3β4; type: cell-based; details: 100% = no change, <100% = inhibition
T4 construct: host or cells: HEK293 or CHO
How it was run: as §1

α4β2 = target: T5, α4β2 (Homo sapiens, UniProt P17787+P43681); experiment: Ion channel panel (IonWorks Barracuda): α4β2; type: cell-based; details: 100% = no change, <100% = inhibition
T5 construct: host or cells: HEK293 or CHO
How it was run: as §1

Nav1.7 = target: T6, Nav1.7 (Homo sapiens, UniProt Q15858); experiment: cell-based; type: cell-based; details: 100% = no change; for Activity of Nav1.7 with peptide, expressed as a percentage of the reference compound: peptide at 0.2 μM; for Activity of Nav1.7 with peptide (percentage of the reference compound): peptide at 20 μM
T6 construct: host or cells: HEK293 or CHO

NR2B = target: T7, NR2B (Homo sapiens, UniProt Q13224); experiment: Ion channel panel (IonWorks Barracuda): NR2B; type: cell-based; details: 100% = no change, <100% = inhibition
T7 construct: host or cells: HEK293 or CHO
How it was run: as §1

TRPA1 = target: T8, TRPA1 (Homo sapiens, UniProt O75762); experiment: Ion channel panel (IonWorks Barracuda): TRPA1; type: cell-based; details: 100% = no change, <100% = inhibition
T8 construct: host or cells: HEK293 or CHO
How it was run: as §1

Kir2.1 = target: T9, Kir2.1 (Homo sapiens, UniProt P63252); experiment: Ion channel panel (IonWorks Barracuda): Kir2.1; type: cell-based; details: 100% = no change, <100% = inhibition
T9 construct: host or cells: HEK293 or CHO
How it was run: as §1

hERG = hERG (Homo sapiens, UniProt Q12809); experiment: in vitro; details: 100% = no change, <100% = inhibition
How it was run: as §1

Nav1.5 = Nav1.5 (Homo sapiens, UniProt Q14524); experiment: in vitro; details: 100% = no change; for Activity of Nav1.5 with peptide, expressed as a percentage of the reference compound: peptide at 0.2 μM; for Activity of Nav1.5 with peptide (percentage of the reference compound): peptide at 20 μM
How it was run: as §1

5HT3a = target: T10, 5HT3a (Homo sapiens, UniProt P46098); experiment: Ion channel panel (IonWorks Barracuda): 5HT3a; type: cell-based
T10 construct: host or cells: HEK293 or CHO
T10 sequence (P46098 whole entry, looked up): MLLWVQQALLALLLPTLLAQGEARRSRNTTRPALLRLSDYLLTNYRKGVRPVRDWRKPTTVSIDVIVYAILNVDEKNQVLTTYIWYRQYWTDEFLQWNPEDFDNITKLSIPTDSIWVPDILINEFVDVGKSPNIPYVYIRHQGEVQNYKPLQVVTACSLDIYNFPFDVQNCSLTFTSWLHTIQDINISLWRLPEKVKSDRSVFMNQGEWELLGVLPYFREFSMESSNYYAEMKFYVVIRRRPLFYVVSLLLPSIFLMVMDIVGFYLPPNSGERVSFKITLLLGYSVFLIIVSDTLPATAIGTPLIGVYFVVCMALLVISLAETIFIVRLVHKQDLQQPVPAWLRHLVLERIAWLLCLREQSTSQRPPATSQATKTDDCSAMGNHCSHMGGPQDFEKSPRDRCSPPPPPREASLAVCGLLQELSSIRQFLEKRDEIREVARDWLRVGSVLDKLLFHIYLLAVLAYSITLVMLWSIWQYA
How it was run: as §1

TRPV1 = target: T11, TRPV1 (Homo sapiens, UniProt Q8NER1); experiment: Ion channel panel (IonWorks Barracuda): TRPV1; type: cell-based; details: 100% = no change, <100% = inhibition
T11 construct: host or cells: HEK293 or CHO
How it was run: as §1

Kv1.2 = target: T12, Kv1.2 (Homo sapiens, UniProt P16389); experiment: cell-based; type: cell-based; details: 100% = no change, <100% = inhibition
T12 construct: host or cells: HEK293 or CHO
How it was run: as §1

Kv1.1 = target: T13, Kv1.1 (Homo sapiens, UniProt Q09470); experiment: cell-based; type: cell-based; details: 100% = no change, <100% = inhibition
T13 construct: host or cells: HEK293 or CHO
How it was run: as §1

Kv1.3 = target: T14, Kv1.3 (Homo sapiens, UniProt P22001); experiment: cell-based; type: cell-based; details: 100% = no change, <100% = inhibition
T14 construct: host or cells: HEK293 or CHO
How it was run: as §1

NR2A = target: T15, NR2A (Homo sapiens, UniProt Q12879); experiment: Ion channel panel (IonWorks Barracuda): NR2A; type: cell-based; details: 100% = no change, <100% = inhibition
T15 construct: host or cells: HEK293 or CHO
How it was run: as §1

GABA = experiment: Ion channel panel (IonWorks Barracuda): GABA; type: cell-based; details: 100% = no change, <100% = inhibition
How it was run: as §1

[1] = first of two Nav1.7 columns (probably TP1)
[2] = second of two Nav1.7 columns (probably TP2)
[3] = first of two Nav1.5 columns (probably TP1)
[4] = second of two Nav1.5 columns (probably TP2)

T6 sequence (Q15858 whole entry): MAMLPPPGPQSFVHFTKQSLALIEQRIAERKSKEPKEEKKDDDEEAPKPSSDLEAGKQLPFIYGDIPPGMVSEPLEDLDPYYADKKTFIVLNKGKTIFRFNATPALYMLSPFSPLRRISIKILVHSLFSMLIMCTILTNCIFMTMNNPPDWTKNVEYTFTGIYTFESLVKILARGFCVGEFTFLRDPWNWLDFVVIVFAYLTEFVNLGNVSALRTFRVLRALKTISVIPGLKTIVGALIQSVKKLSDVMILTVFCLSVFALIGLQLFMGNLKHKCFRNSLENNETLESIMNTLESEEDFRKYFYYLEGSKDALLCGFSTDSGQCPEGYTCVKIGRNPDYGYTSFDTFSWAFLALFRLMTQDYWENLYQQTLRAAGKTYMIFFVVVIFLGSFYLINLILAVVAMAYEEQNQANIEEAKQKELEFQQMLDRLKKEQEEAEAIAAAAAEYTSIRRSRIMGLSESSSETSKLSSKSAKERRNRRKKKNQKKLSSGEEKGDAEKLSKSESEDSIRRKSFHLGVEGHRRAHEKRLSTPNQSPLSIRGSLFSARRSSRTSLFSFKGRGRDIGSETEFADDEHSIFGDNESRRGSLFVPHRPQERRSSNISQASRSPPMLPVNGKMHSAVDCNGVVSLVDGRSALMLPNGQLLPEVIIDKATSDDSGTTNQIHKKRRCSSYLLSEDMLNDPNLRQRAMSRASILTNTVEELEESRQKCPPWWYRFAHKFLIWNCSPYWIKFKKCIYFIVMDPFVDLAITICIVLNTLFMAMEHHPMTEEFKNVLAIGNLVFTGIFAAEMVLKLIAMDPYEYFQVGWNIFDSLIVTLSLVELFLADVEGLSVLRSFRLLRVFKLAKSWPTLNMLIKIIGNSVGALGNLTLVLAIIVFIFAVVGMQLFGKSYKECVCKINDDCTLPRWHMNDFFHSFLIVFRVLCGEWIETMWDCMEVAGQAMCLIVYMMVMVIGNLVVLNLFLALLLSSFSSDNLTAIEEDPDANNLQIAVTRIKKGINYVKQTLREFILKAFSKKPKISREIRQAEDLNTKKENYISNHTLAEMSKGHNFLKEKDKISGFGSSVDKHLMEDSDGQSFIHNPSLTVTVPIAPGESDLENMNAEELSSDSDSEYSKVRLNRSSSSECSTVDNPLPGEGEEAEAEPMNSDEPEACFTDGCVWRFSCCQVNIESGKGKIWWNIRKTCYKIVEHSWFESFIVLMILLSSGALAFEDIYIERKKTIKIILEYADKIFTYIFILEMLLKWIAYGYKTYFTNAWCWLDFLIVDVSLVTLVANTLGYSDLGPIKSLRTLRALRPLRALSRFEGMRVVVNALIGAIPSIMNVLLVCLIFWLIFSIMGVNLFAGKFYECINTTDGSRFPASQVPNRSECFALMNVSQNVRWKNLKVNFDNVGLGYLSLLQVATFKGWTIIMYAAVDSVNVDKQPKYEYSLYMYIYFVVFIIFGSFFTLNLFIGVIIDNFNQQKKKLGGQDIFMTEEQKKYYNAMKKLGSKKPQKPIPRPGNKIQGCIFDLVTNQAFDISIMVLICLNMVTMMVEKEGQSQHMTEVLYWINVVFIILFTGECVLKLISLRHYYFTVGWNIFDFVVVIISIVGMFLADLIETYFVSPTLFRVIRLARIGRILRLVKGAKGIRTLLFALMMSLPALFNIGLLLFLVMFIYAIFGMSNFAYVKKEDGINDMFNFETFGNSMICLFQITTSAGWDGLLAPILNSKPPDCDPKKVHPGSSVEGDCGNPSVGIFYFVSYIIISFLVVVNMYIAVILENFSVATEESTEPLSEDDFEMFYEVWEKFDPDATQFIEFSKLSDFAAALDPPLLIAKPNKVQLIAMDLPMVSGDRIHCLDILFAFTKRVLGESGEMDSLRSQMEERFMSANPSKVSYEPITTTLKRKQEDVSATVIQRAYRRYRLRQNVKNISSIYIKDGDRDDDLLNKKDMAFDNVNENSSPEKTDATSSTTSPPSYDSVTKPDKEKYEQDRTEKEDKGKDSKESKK
Sequence of Nav1.5 (Q14524 whole entry): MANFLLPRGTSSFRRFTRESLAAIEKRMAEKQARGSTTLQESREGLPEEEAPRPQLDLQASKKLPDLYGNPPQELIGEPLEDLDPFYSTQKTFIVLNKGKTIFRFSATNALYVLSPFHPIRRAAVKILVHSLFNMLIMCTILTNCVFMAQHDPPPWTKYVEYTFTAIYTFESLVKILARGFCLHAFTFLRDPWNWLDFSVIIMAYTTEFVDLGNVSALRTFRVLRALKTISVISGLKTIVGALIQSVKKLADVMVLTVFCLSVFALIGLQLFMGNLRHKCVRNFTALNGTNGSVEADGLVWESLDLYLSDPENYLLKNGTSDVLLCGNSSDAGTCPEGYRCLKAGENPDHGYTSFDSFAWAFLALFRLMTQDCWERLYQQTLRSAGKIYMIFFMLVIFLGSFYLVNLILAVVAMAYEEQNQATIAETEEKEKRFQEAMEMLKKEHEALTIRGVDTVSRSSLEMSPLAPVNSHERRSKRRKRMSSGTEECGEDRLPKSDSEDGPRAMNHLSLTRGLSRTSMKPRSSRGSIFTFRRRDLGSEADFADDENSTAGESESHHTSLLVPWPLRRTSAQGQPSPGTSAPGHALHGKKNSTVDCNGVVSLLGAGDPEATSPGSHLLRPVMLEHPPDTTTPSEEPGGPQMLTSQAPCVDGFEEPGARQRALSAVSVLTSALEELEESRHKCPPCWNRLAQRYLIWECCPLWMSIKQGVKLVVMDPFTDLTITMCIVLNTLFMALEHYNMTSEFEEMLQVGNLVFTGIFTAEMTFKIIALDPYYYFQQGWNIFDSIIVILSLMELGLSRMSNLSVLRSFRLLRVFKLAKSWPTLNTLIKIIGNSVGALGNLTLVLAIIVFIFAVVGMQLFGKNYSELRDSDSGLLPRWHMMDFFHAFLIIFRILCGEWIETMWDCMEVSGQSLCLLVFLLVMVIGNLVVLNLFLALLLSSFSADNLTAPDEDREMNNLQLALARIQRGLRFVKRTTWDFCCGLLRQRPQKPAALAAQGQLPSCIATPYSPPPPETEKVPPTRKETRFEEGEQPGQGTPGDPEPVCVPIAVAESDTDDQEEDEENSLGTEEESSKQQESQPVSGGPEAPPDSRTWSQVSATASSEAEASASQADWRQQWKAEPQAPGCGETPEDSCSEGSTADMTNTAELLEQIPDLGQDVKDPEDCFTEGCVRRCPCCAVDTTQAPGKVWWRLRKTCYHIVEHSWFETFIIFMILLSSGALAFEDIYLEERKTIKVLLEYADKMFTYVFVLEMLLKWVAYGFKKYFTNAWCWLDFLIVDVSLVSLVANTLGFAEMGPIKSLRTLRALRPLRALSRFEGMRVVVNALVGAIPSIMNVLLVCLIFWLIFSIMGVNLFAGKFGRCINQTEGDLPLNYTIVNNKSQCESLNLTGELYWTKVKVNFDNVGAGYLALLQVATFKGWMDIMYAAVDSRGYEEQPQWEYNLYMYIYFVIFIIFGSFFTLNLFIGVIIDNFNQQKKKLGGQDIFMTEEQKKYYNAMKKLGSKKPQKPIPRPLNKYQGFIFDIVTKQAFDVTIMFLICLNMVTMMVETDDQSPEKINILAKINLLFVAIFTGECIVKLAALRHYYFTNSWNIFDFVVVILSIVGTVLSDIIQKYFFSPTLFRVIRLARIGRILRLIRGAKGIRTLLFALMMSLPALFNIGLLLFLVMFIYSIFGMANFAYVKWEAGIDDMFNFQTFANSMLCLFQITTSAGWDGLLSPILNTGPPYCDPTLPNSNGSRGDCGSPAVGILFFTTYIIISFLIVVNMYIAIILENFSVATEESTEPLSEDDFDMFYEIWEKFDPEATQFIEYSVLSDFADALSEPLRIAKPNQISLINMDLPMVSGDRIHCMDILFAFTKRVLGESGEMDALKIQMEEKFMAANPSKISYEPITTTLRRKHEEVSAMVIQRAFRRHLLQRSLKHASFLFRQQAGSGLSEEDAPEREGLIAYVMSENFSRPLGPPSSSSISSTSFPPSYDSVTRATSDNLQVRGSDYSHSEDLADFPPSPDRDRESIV
T4 sequence (P30926 22-498): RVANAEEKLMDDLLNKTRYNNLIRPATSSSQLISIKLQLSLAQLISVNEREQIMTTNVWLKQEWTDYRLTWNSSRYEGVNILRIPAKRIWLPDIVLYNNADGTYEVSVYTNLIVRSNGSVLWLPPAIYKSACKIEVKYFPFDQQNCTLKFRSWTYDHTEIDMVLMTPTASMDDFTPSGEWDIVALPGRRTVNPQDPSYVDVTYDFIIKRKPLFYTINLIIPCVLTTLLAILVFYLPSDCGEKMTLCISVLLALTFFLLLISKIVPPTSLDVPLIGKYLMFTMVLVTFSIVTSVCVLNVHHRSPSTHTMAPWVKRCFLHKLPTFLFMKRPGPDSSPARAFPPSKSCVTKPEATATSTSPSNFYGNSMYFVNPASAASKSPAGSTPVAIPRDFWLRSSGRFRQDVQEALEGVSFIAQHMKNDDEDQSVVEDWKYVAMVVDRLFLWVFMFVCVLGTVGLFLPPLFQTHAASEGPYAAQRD
T4 sequence (P32297 32-505): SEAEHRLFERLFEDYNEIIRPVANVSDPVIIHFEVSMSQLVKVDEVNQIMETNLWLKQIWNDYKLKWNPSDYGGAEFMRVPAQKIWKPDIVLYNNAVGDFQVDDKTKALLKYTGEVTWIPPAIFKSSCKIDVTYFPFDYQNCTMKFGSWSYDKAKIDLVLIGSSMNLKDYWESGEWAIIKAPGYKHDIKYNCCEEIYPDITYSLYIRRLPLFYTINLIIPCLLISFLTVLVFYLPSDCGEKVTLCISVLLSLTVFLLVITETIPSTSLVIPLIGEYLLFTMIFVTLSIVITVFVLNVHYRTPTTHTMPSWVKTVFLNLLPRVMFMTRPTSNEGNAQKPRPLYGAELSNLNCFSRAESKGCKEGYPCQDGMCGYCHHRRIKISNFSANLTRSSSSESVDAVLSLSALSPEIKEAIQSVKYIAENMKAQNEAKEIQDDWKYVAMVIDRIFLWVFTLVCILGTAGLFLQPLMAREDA

Substance: 32 (GSQDKCKKVYENYPVSKCQLANQCNYDCKLDKHARSGECFYDEKRNLQCICDYCEY) [compound 32]
- Activity of Kv2.1 with peptide, expressed as a percentage of the reference compound (Kv2.1; peptide at 0.2 μM): 92%
- Activity of Kv2.1 with peptide (percentage of the reference compound) (Kv2.1; peptide at 20 μM): 93%
- Activity of Cav2.2 with peptide, expressed as a percentage of the reference compound (Cav2.2; peptide at 0.2 μM): 102%
- Activity of Cav2.2 with peptide (percentage of the reference compound) (Cav2.2; peptide at 20 μM): 101%
- Activity of Cav2.1 with peptide, expressed as a percentage of the reference compound (Cav2.1; peptide at 0.2 μM): 98%
- Activity of Cav2.1 with peptide (percentage of the reference compound) (Cav2.1; peptide at 20 μM): 92%
- Activity of a3b4 with peptide, expressed as a percentage of the reference compound (α3β4; peptide at 0.2 μM): 100%
- Activity of a3b4 with peptide (percentage of the reference compound) (α3β4; peptide at 20 μM): 96%
- Activity of a4b2 with peptide, expressed as a percentage of the reference compound (α4β2; peptide at 0.2 μM): 81%
- Activity of a4b2 with peptide (percentage of the reference compound) (α4β2; peptide at 20 μM): 86%
- Activity of Nav1.7 with peptide, expressed as a percentage of the reference compound (Nav1.7; [1]): 96%
- Activity of Nav1.7 with peptide, expressed as a percentage of the reference compound (Nav1.7; [2]): 97%
- Activity of Nav1.7 with peptide (percentage of the reference compound) (Nav1.7; [1]): 87%
- Activity of Nav1.7 with peptide (percentage of the reference compound) (Nav1.7; [2]): 61%
- Activity of NR2B with peptide, expressed as a percentage of the reference compound (NR2B; peptide at 0.2 μM): 76%
- Activity of NR2B with peptide (percentage of the reference compound) (NR2B; peptide at 20 μM): 106%
- Activity of TRPA1 with peptide, expressed as a percentage of the reference compound (TRPA1; peptide at 0.2 μM): 130%
- Activity of TRPA1 with peptide (percentage of the reference compound) (TRPA1; peptide at 20 μM): 108%
- Activity of Kir2.1 with peptide, expressed as a percentage of the reference compound (Kir2.1; peptide at 0.2 μM): 95%
- Activity of Kir2.1 with peptide (percentage of the reference compound) (Kir2.1; peptide at 20 μM): 79%
- Activity of hERG with peptide, expressed as a percentage of the reference compound (hERG; peptide at 0.2 μM): 90%
- Activity of hERG with peptide (percentage of the reference compound) (hERG; peptide at 20 μM): 65%
- Activity of Nav1.5 with peptide, expressed as a percentage of the reference compound (Nav1.5; [3]): 108%
- Activity of Nav1.5 with peptide, expressed as a percentage of the reference compound (Nav1.5; [4]): 101%
- Activity of Nav1.5 with peptide (percentage of the reference compound) (Nav1.5; [3]): 90%
- Activity of Nav1.5 with peptide (percentage of the reference compound) (Nav1.5; [4]): 90%
- Activity of 5HT3a with peptide (percentage of the reference compound) (5HT3a): 105%
- Activity of 5HT3a with peptide, expressed as a percentage of the reference compound (5HT3a): 95%
- Activity of TRPV1 with peptide, expressed as a percentage of the reference compound (TRPV1; peptide at 0.2 μM): 99%
- Activity of TRPV1 with peptide (percentage of the reference compound) (TRPV1; peptide at 20 μM): 84%
- Activity of Kv1.2 with peptide, expressed as a percentage of the reference compound (Kv1.2; peptide at 0.2 μM): 89%
- Activity of Kv1.2 with peptide (percentage of the reference compound) (Kv1.2; peptide at 20 μM): 112%
- Activity of Kv1.1 with peptide, expressed as a percentage of the reference compound (Kv1.1; peptide at 0.2 μM): 76%
- Activity of Kv1.1 with peptide (percentage of the reference compound) (Kv1.1; peptide at 20 μM): 114%
- Activity of Kv1.3 with peptide, expressed as a percentage of the reference compound (Kv1.3; peptide at 0.2 μM): 98%
- Activity of Kv1.3 with peptide (percentage of the reference compound) (Kv1.3; peptide at 20 μM): 98%
- Activity of NR2A with peptide, expressed as a percentage of the reference compound (NR2A; peptide at 0.2 μM): 95%
- Activity of NR2A with peptide (percentage of the reference compound) (NR2A; peptide at 20 μM): 110%
- Activity of GABA with peptide, expressed as a percentage of the reference compound (GABA; peptide at 0.2 μM): 98%
- Activity of GABA with peptide (percentage of the reference compound) (GABA; peptide at 20 μM): 105%
